For one sequence, Kd results are on record in article PMC9283540.

The target in data set [1] is TipsytheTRex immunity repressor (WT of study stock) (Mycobacteriophage TipsytheTRex (cluster A)) (UniProt A0A2D1GKF7). Nature of the data set: EMSA. The following applies: 0.25 uM labeled DNA; EMSA: 20 mM Tris pH 7.0, 25 mM NaCl, 1 mM DTT, 100 ug/mL BSA, 5% glycerol, 0.25 uM FAM-DNA, room temperature 30 min, 5% native gel in 1x TAE. (Mobility shift assays separate free from complexed probe on a gel.)

The target in data set [2] is TipsytheTRex repressor D104A (Mycobacteriophage TipsytheTRex (cluster A)) (UniProt A0A2D1GKF7). Description: EMSA. The following applies: 0.25 uM labeled DNA; ~3.5-fold weaker than WT; EMSA: 20 mM Tris pH 7.0, 25 mM NaCl, 1 mM DTT, 100 ug/mL BSA, 5% glycerol, 0.25 uM FAM-DNA, room temperature 30 min, 5% native gel in 1x TAE.

The term Kd denotes the concentration at which binding is half-saturated. Turning to “ACGGCCCGCTTGACAGCCACCGAAACATCC (double strand) [30-bp optimal]”, the figures for the dissociation constant (Kd) in data set [1] and in data set [2] were 59 nM and 207 nM, respectively.
